From patent US20220144936A1 (SINOCELLTECH, published 2022)
Several values for one entry are separate records, joined by “and”; a condition that tells them apart may be missing. Equal entries are not always repeated.

B1: humanized antibody IL17A-H069 (antibody, human IgG1, kappa, V domains shown)
VH: EVQLVQSGAEVKKPGATVKISCKASGYTFTDYEMHWVQQAPGHGLEWMGVIHPGGGGTAYNQKFKGRVTITADTSTDTAYMELSSLRSEDTAVYYCTRGDHDGRTDYWGQGTLVTVSS
VL: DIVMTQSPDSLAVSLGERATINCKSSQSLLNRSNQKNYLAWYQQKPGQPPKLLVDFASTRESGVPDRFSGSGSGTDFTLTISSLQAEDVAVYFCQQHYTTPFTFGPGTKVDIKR
notes: Humanized IgG1/kappa made in CHO-K1-GS cells
B2: murine antibody IL17A-M069 (antibody, mouse IgG1, V domains shown)
VH: QAHLQQSGAELVRPGASVKLSCKALGYTFTDYEMHWVKQTPVHGLEWIGVIHPGGGGTAYNQKFKGKATLTADKSSSTAYMELSSLTSEDSAVYYCTRGDHDGRTDYWGQGTTLTVSS
VL: DIVMSQSPSSLAMSVGQKVTMNCKSNQSLLNRSNQKNYLAWYQQKPGQSPKLLVDFASTRESGVPDRFIGSGSGTDFSLTISSVQAEDLADYFCQQHYTTPFTFGSGTKLEIK

Legend:
[1] = target: T1, recombinant human IL17A protein (human, UniProt Q16552 24-155); assay: cell-based or functional assay
T1 sequence (Q16552 24-155 limits assumed): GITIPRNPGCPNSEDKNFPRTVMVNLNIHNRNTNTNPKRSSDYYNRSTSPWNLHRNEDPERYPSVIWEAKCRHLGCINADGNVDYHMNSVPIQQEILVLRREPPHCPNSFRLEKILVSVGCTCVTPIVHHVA

[2] = target: T2, recombinant human IL17A/F dimer protein (SinoBiological, Inc., CT047-HNAE) (human, UniProt Q16552 24-155; Q96PD4 31-163); assay: cell-based or functional assay
T2 sequence (Q16552 24-155 limits assumed, chain 1 of 2): as the sequence (Q16552 24-155 limits assumed) above
T2 sequence (Q96PD4 31-163 limits assumed, chain 2 of 2): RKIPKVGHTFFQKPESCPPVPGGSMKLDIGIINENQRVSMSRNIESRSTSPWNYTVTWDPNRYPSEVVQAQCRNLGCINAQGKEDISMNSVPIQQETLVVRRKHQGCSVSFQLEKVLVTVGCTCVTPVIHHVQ

[3] = target: T3, mouse mIL17A protein (Sino Biological, Inc.) (mouse, UniProt Q62386 26-158); assay: ELISA, coated antigen, goat anti-human IgG Fc/HRP
T3 construct: also called mouse IL17A protein
T3 sequence (looked up): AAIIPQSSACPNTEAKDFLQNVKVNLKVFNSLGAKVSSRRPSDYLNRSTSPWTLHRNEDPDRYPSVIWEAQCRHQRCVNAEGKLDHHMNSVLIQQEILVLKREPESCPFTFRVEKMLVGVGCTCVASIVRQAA

[4] = target: T1, recombinant human IL17A protein; assay: Octet (BLI), biotinylated IL17A, antibody 0.42-3.47 nM
[5] = target: T2, recombinant human IL17A/F dimer protein …; assay: Octet (BLI), biotinylated IL17A/F, antibody 0.42-3.47 nM
[6] = target: T1, recombinant human IL17A protein; assay: competition ELISA: IL17A coated, competitor IL17RA-His-biotin at 2 µg/mL, antibody varied
[7] = target: T2, recombinant human IL17A/F dimer protein …; assay: competition ELISA: IL17RA-Fc coated (competitor), IL17A/F-Biotin at 0.8 µg/mL, antibody varied
[8] = target: T1, recombinant human IL17A protein; assay: ELISA: IL17A coated at different concentrations, antibody fixed at 2 µg/mL, anti-human IgG Fc/HRP; EC50 is on the antigen concentration
[9] = target: T2, recombinant human IL17A/F dimer protein …; assay: ELISA: IL17A/F coated at different concentrations, antibody fixed at 2 µg/mL, anti-human IgG Fc/HRP; EC50 is on the antigen concentration
[10] = target: T1, recombinant human IL17A protein; assay: cell-based or functional assay; remark: listed apart in the source

| Binder | EC50 (µg/mL), blocking IL17A-induced IL6 secretion of HFF cells [1] | EC50 (µg/mL), blocking IL17A/F-induced IL6 secretion of HFF cells [2] | binding result [3] | Kd [4] | koff [4] | kon [4] | Kd [5] | koff [5] | kon [5] | IC50 [6] | IC50 [7] | EC50 [8] | EC50 [9] | EC50 of blocking IL17A-induced IL-6 secretion of HFF cells [10] |
| --- | --- | --- | --- | --- | --- | --- | --- | --- | --- | --- | --- | --- | --- | --- |
| B1 | 0.2 µg/mL and 0.19 µg/mL | 1.19 µg/mL and 0.83 µg/mL | no binding | 28.8 pM | 1.93e-05 s⁻¹ | 671000 M⁻¹ s⁻¹ | 537 pM | 7.72e-05 s⁻¹ | 144000 M⁻¹ s⁻¹ | 0.5 µg/mL | 1.02 µg/mL | 0.046 µg/mL | 0.0363 µg/mL | – |
| B2 | – | – | – | – | – | – | – | – | – | – | – | – | – | 0.243 µg/mL |
